Laboratory results published in paper PMC2189283.

Key:
[1] = target: CD2 ligand on sheep erythrocytes (T11TS, the sheep homologue of LFA-3) (sheep (endogenous in sheep erythrocytes))
[2] = target: LFA-3 surface glycoprotein on the human B-lymphoblastoid line JY (human (endogenous in JY)) (UniProt P19256); assay: flow cytometry on cells
UniProt P19256, sequence (P19256 29-250): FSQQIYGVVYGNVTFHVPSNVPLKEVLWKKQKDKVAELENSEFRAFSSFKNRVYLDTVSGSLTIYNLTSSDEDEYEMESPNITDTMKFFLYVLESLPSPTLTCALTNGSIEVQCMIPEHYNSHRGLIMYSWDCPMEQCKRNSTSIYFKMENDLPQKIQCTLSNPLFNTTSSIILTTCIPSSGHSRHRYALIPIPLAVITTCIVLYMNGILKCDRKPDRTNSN

half-maximal inhibition of sheep erythrocyte-Jurkat T cell rosettes [1]: 0.63 to 1.25 µM
percent reduction of specific anti-LFA-3 reactivity at 10 uM T11ex2 [2]: 85%
Substance: T11ex2, recombinant soluble CD2 (T11) molecule that corresponds to the two extracellular segment exons (domain or fragment)
